Literature values as cited in article PMC4448172.

Biological target: KV1.3 (UniProt P22001)
UniProt P22001, sequence (P22001 whole entry): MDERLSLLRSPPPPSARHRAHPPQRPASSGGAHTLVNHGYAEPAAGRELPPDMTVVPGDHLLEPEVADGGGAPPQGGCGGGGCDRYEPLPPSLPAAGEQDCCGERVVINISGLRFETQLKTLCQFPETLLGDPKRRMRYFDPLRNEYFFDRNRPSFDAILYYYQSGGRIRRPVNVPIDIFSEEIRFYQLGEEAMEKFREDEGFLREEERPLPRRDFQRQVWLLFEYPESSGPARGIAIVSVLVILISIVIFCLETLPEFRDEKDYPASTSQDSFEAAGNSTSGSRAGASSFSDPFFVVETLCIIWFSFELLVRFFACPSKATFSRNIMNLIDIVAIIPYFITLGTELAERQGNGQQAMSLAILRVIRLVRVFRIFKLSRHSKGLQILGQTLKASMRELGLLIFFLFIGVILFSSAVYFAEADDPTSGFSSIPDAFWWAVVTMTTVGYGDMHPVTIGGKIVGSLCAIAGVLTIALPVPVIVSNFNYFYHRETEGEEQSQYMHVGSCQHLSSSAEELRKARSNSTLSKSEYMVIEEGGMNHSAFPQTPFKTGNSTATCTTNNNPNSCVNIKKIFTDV

For ShK (from UniProt P29187), the Kd is listed as 0.011 nM.
